Assays:
[1] = test system: Lewis lung carcinoma (LLC); assay: Enhancement of cisplatin treatment effects in LLC allograft model (tumor size, survival); format: in vivo, C57BL/6J mice; conditions: for inhibiting the growth of the tumor: nanoparticles 100 nM (days 7, 10, 13) administered together with cisplatin 3 mg/kg (days 7, 12), on day 13
Method: In order to confirm whether the treatment effects of a conventionally used anticancer agent may be enhanced by normalizing abnormal blood vessels in a tumor, 100 nM of the TFG nanoparticles or TFMG nanoparticles was injected into the tail vein in a tumor animal model prepared in the same manner as in Example 2.1 on days 7, 10, and 13, cisplatin was injected at a concentration of 3 mg/kg on days 7 and 12, and the survival proportion was measured. An equal amount of phosphate buffered saline was injected into a negative control (Con), and an equal amount of cisplatin was injected alone into a positive control (Cis). Then, the tumor size was confirmed by obtaining tumors on days 9, 11, and 13. The results are illustrated in FIGS. 8 and 9.

[2] = test system: blood vessels in a tumor (Lewis lung carcinoma (LLC)); assay: Structure and function of blood vessels in LLC tumor (IHC, pimonidazole hypoxia staining); format: in vivo, C57BL/6J mice; conditions: FIG. 7
Method: The structure and function of blood vessels in a tumor were analyzed using the tumor obtained in the same manner as in Example 2.1. More specifically, the obtained tumor was observed using a confocal microscope after fluorescent staining was performed through IHC analyses in the same manner as in Example 2.2. In order to measure the hypoxic state inside the tumor, 60 mg/kg of Hypoxyprobe-1™ (pimonidazole hydrochloride; PIMO, HPI) was administered through intraperitoneal injection, and 90 minutes later, the mouse was sacrificed and the tumor extracted. The extracted tumor was incised, and then stained with mouse anti-hypoxyprobe antibody (HPI), Alexa Fluor 488-, 568-, or 647-conjugated anti-mouse IgG (Invitrogen), and in order to measure the degree of leakage of blood vessels in the tumor, 40 mg/kg of Hoechst33258 (Invitrogen) was intravenously injected 5 minutes before the mouse was sacrificed. The prepared sample was obtained using a confocal microscope. The results are illustrated in FIGS. 6 and 7.

[3] = test system: naturally occurring tumor model (MMTV-PyMT gene transplanted mice); assay: Inhibition of tumor metastasis in naturally occurring tumor model; format: in vivo; conditions: compared to the control; 100 nM into tail veins at 12 weeks, confirmed at 15 weeks
Excerpt: The results are illustrated in FIG. 12.

[4] = test system: naturally occurring tumor model (MMTV-PyMT gene transplanted mice); assay: Inhibition of tumor proliferation in naturally occurring tumor model; format: in vivo; conditions: 100 nM into tail veins of 12-week-old mice; tumors obtained at 15 weeks
Method: More specifically, the sizes of all the distinct nodules of 12-week-old mice were measured, and the mice were grouped according to the sizes of the tumors. Then, 100 nM of the TFG nanoparticles or TFMG nanoparticles was injected into their tail veins, and the tumors were obtained when the mice became 15 weeks old. Then, the sizes of the tumors were measured in the same manner as in Example 2.1. The results are illustrated in FIG. 11.

[5] = test system: Lewis lung carcinoma (LLC); assay: Inhibition of tumor proliferation and survival in LLC allograft tumor animal model; format: in vivo, C57BL/6J mice; conditions: 100 nM into the tail vein on days 7, 10, 13; for survival proportion: FIG. 3; for tumor growth inhibition effect: compared with the control, tumor obtained on day 14
Method: In order to confirm the effects of the TFG nanoparticles or TFMG nanoparticles on the proliferation of cancer cells, after a tumor animal model was prepared by allografting 2 to 5×10^5 cells of Lewis lung carcinoma (LLC) as a murine lung cancer cell line into 6- to 7-week-old C57BL/6J mice, 100 nM of the TFG nanoparticles or TFMG nanoparticles was injected into the tail vein on days 7, 10, and 13, and then the size and survival proportion of the tumor were observed by obtaining the tumor on day 14. The tumor size was measured by substitution into the formula “0.5×A×B^2 (A: diameter in the longest direction, and B: diameter in a direction vertical to the longest direction).” An equal amount of phosphate buffered saline was administered to a control (Con). Animal care and all experimental procedures were performed in accordance with the laws and regulations for animal experiments. In order to show a significant difference between the corresponding groups in at least 3 of all the experimental result values, an ANOVA verification was performed, and only values with statistical significance of P-values <0.05 were shown as the average value±standard deviations (SD). The results are illustrated in FIGS. 1 to 3.

[6] = test system: Lewis lung carcinoma (LLC); assay: Inhibition of tumor metastasis into lungs and inguinal lymph nodes, LLC allograft model after tumor removal surgery; format: in vivo, C57BL/6J mice; conditions: compared with the control; for lymph node metastasis inhibition rate: inguinal lymph nodes, IHC, day 28; for metastasis of the tumor into the lungs inhibited: tumor removal surgery day 14, metastasis confirmed day 28
Method: In order to confirm whether the TFG nanoparticles or TFMG nanoparticles affected the inhibition of metastasis of tumor, a tumor animal model was prepared in the same manner as in Example 2.1, and then the TFG nanoparticles or TFMG nanoparticles were injected. Then, a tumor removal surgery was performed on day 14, and it was confirmed whether the tumor metastasized into the lungs and the inguinal lymph nodes (LNs) on day 28. The metastasis into the inguinal lymph nodes was confirmed using immunohistochemistry (IHC) analyses. More specifically, the lymph nodes obtained to confirm cytokeratin positive tumor cells were fixed with 3.7% paraformaldehyde (PFA), and then dehydrated by treatment with a 10 to 40% sucrose solution at each step. Then, after the permeability of cells was increased by treatment with 0.3% Triton X-100 and a blocking process was performed using a bovine serum albumin (BSA), the lymph nodes were treated with rat anti-CD31 (BD Biosciences), mouse anti-α-SMA (Abcam), mouse anti-pimonidazole (HPI), mouse anti-cytokeratin II (Millipore), or rabbit anti-LYVE-1 (Angiobio) antibodies, and reacted at 4° C. for 16 hours. Then, unbound antibodies were washed using phosphate buffered saline, and then treated with Alexa Fluor 488-, 568-, or 647-conjugated anti-mouse IgG (Invitrogen), Alexa Fluor 594- or 647-conjugated anti-rat IgG (Invitrogen), Alexa Fluor 488-, 568-, or 647-conjugated anti-rabbit IgG (Invitrogen) antibodies that were secondary antibodies to a fluorescent marker, and reacted at room temperature for 1 hour. Then, finally, cellular nuclei were stained by treatment with Hoechst33258 (Invitrogen) for 1 minute, and then observed using a confocal microscope, and a fluorescence value was quantified using ImageJ. In order to show a significant difference between the corresponding groups in at least 3 of all the experimental result values, an ANOVA verification was performed, and only values with statistical significance of P-values <0.05 were shown as the average value±standard deviations (SD). The results are illustrated in FIGS. 4 to 5.

Row | Molecule | growth of the tumor inhibited ([1]; cisplatin administered alone, 3 mg/kg on days 7 and 12 (positive control)) | blood vessels covered with α-smooth muscle actin positive pericytes [2] | metastasis inhibition rate [3] | number of nodules with tumors decreased [4] | sizes of the tumors decreased [4] | survival proportion [5] | tumor growth inhibition effect [5] | lymph node metastasis inhibition rate [6] | metastasis of the tumor into the lungs inhibited [6] | inhibiting the growth of the tumor [1]
1 | N.N.[Cl][Pt][Cl] [cisplatin, reference compound] | 62.6% | – | – | – | – | – | – | – | – | –
2 | TFG nanoparticles: a TRAP-ferritin monomer fragment-PC-Gla fusion polypeptide; a polypeptide represented by SEQ ID NO: 1 (protein, nanoparticle assembly; TFG nanoparticle) MGGTTFLLRNASGHMSSQIRQNYSTDVEAAVNSLVNLYLQASYTYLSLGFYFDRDDVALEGVSHFFRELAEEKREGYERLLKMQNQRGGRIFLQDIKKPAEDEWGKTPDAMKAAMALEKKLNQALLDLHALGSARTDPHLCDFLETHFLDEEVKLIKKMGDHLTNLHRLGGGSEFVDGGGSGTSANSFLEELRHSSLERECIEEICDFEEAKEIFQNVDDTLAFWSKHVLEHHHHHH | – | increased | 93.6% | 39.1% | 85% | increased | 28.2% | 76.9% | 83.4% | 96.2%
3 | TFMG nanoparticles: a TRAP-ferritin monomer fragment-linker-PC-Gla fusion polypeptide; a polypeptide represented by SEQ ID NO: 2 (protein, nanoparticle assembly; TFMG nanoparticle) MGGTTFLLRNASGHMSSQIRQNYSTDVEAAVNSLVNLYLQASYTYLSLGFYFDRDDVALEGVSHFFRELAEEKREGYERLLKMQNQRGGRIFLQDIKKPAEDEWGKTPDAMKAAMALEKKLNQALLDLHALGSARTDPHLCDFLETHFLDEEVKLIKKMGDHLTNLHRLGGGSEFVDGGGSGTSGPLGLAGANSFLEELRHSSLERECIEEICDFEEAKEIFQNVDDTLAFWSKHVLEHHHHHH | – | increased | 93.6% | 59% | 87.2% | increased | 27.0% | 78.1% | 86.4% | 94.3%

Source: patent US11638741B2, “Composition for treating cancer or inhibiting cancer metastasis, including TFG or TFMG nanoparticles” (KYUNGPOOK NATIONAL UNIVERSITY INDUSTRY-ACADEMIC COOPERATION …, priority 2019, dated 2023)
